B1: Serine protease HTRA2, mitochondrial (Homo sapiens), O43464 (parent)
chain: MAAPRAGRGAGWSLRAWRALGGIRWGRRPRLTPDLRALLTSGTSDPRARVTYGTPSLWARLSVGVTEPRACLTSGTPGPRAQLTAVTPDTRTREASENSGTRSRAWLAVALGAGGAVLLLLWGGGRGPPAVLAAVPSPPPASPRSQYNFIADVVEKTAPAVVYIEILDRHPFLGREVPISNGSGFVVAADGLIVTNAHVVADRRRVRVRLLSGDTYEAVVTAVDPVADIATLRIQTKEPLPTLPLGRSADVRQGEFVVAMGSPFALQNTITSGIVSSAQRPARDLGLPQTNVEYIQTDAAIDFGNSGGPLVNLDGEVIGVNTMKVTAGISFAIPSDRLREFLHRGEKKNSSSGISGSQRRYIGVMMLTLSPSILAELQLREPSFPDVQHGVLIHKVILGSPAHRAGLRPGDVILAIGEQMVQNAEDVYEAVRTQSQLAVQIRRGRETLTLYVTPEVTE
partner: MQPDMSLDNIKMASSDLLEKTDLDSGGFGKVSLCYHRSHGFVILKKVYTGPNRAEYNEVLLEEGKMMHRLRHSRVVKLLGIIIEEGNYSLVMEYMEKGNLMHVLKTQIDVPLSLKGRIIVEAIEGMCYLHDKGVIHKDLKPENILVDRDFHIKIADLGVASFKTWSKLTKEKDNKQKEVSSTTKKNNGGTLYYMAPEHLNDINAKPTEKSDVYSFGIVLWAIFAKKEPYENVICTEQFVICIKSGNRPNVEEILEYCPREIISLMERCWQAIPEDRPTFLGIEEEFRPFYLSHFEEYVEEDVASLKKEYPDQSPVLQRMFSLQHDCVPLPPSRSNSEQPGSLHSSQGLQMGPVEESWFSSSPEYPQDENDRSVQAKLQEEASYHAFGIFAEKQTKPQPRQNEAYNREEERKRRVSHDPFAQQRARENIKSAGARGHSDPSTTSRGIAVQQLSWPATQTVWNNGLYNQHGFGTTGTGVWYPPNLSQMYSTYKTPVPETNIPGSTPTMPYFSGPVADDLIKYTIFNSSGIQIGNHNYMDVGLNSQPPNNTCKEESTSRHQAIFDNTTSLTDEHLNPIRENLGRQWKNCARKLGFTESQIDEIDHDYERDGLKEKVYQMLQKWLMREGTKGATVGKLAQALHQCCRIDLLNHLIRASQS

Variants of: B1
Details: with ripk1_mouse Ripk1, Q60855

Variant | effect of a mutation on the interaction
MAAPRAGRGAGWSLRAWRALGGIRWGRRPRLTPDLRALLTSGTSDPRARVTYGTPSLWARLSVGVTEPRACLTSGTPGPRAQLTAVTPDTRTREASENSGTRSRAWLAVALGAGGAVLLLLWGGGRGPPAVLAAVPSPPPASPRSQYNFIADVVEKTAPAVVYIEILDRHPFLGREVPISNGSGFVVAADGLIVTNAHVVADRRRVRVRLLSGDTYEAVVTAVDPVADIATLRIQTKEPLPTLPLGRSADVRQGEFVVAMGSPFALQNTITSGIVSSAQRPARDLGLPQTNVEYIQTDAAIDFGNAGGPLVNLDGEVIGVNTMKVTAGISFAIPSDRLREFLHRGEKKNSSSGISGSQRRYIGVMMLTLSPSILAELQLREPSFPDVQHGVLIHKVILGSPAHRAGLRPGDVILAIGEQMVQNAEDVYEAVRTQSQLAVQIRRGRETLTLYVTPEVTE [S306A] | disrupting interaction

Source: IntAct's records for PubMed 20125124
